For one substance, O.D. results are on record in patent US20060018918A1.

Common to all, as to assay: ELISA on plates coated with the antigen; control serum
For orientation: ELISA stands for enzyme-linked immunosorbent assay.

For one assay, the target named is native α-lactalbumin.
In assay [1] the target is α-lactalbumin stabilized denatured isomer "a".
The target in assay [2] is α-lactalbumin stabilized denatured isomer "c".
For assay [3], the target named is α-lactalbumin stabilized denatured isomer "d".

Regarding “normal mouse serum (control) (polyclonal serum or antibody)”, the O.D. with native α-lactalbumin stood at 0.06 O.D; in assay [1], 0.06 O.D; in assay [2] it was 0.056 O.D; in assay [3], 0.05 O.D.
